Starred links: 1 amine or outer side, 2 acyl side, 3 side chain; linkers in the order of their positions; H or OH if unused. Positions of bridges follow the written chain, without caps; N, C: chain ends. Non-standard residues stand in square brackets, D forms with d. Primed or numbered codes have the meaning given here. *: point of attachment. B21″ = 2,7-dimethylnaphtyl linker joining two Cys, c1cc2ccc(C[*:2])cc2cc1C[*:1]; Palmitoyl = CCCCCCCCCCCCCCCC(=O)*; tBuAla = CC(C)(C)C[C@H](N)C(=O)O; Suc = O=C(CCC(=O)[*:2])[*:1]; Isovaleryl = CC(C)CC(=O)*; Pentanoyl = CCCCC(=O)*; B1 = not defined here; B2 = not defined here
These binders were tested against gp41 of HIV-1 strain HXB2D with mutation V38A (HIV-1 strain HXB2D, UniProt P04578) (assay: cell-based or functional assay).

Binder	fold change in EC50, HIV-HXB2D V38A mutant [fold]
Suc-[dA]NYLALIEALIRAAQEQQEKNEAAL[dR]-NH2 (SMILES CC[C@H](C)[C@H](NC(=O)[C@H](CC(C)C)NC(=O)[C@H](C)NC(=O)[C@H](CCC(=O)O)NC(=O)[C@@H](NC(=O)[C@H](CC(C)C)NC(=O)[C@H](C)NC(=O)[C@H](CC(C)C)NC(=O)[C@H](Cc1ccc(O)cc1)NC(=O)[C@H](CC(N)=O)NC(=O)[C@@H](C)NC(=O)CCC(=O)O)[C@@H](C)CC)C(=O)N[C@@H](CCCNC(=N)N)C(=O)N[C@@H](C)C(=O)N[C@@H](C)C(=O)N[C@@H](CCC(N)=O)C(=O)N[C@@H](CCC(=O)O)C(=O)N[C@@H](CCC(N)=O)C(=O)N[C@@H](CCC(N)=O)C(=O)N[C@@H](CCC(=O)O)C(=O)N[C@@H](CCCCN)C(=O)N[C@@H](CC(N)=O)C(=O)N[C@@H](CCC(=O)O)C(=O)N[C@@H](C)C(=O)N[C@@H](C)C(=O)N[C@@H](CC(C)C)C(=O)N[C@H](CCCNC(=N)N)C(N)=O) [peptide 12]	51
Suc-ANYLALIEALIRAAQEQQEKNEAALK(Palmitoyl)-NH2 (SMILES CCCCCCCCCCCCCCCC(=O)NCCCC[C@H](NC(=O)[C@H](CC(C)C)NC(=O)[C@H](C)NC(=O)[C@H](C)NC(=O)[C@H](CCC(=O)O)NC(=O)[C@H](CC(N)=O)NC(=O)[C@H](CCCCN)NC(=O)[C@H](CCC(=O)O)NC(=O)[C@H](CCC(N)=O)NC(=O)[C@H](CCC(N)=O)NC(=O)[C@H](CCC(=O)O)NC(=O)[C@H](CCC(N)=O)NC(=O)[C@H](C)NC(=O)[C@H](C)NC(=O)[C@H](CCCNC(=N)N)NC(=O)[C@@H](NC(=O)[C@H](CC(C)C)NC(=O)[C@H](C)NC(=O)[C@H](CCC(=O)O)NC(=O)[C@@H](NC(=O)[C@H](CC(C)C)NC(=O)[C@H](C)NC(=O)[C@H](CC(C)C)NC(=O)[C@H](Cc1ccc(O)cc1)NC(=O)[C@H](CC(N)=O)NC(=O)[C@H](C)NC(=O)CCC(=O)O)[C@@H](C)CC)[C@@H](C)CC)C(N)=O) [peptide 13]	2
Pentanoyl-ANYAALIEALIRAAQEQQEKNEAALR-NH2 (SMILES CCCCC(=O)N[C@@H](C)C(=O)N[C@@H](CC(N)=O)C(=O)N[C@@H](Cc1ccc(O)cc1)C(=O)N[C@@H](C)C(=O)N[C@@H](C)C(=O)N[C@@H](CC(C)C)C(=O)N[C@H](C(=O)N[C@@H](CCC(=O)O)C(=O)N[C@@H](C)C(=O)N[C@@H](CC(C)C)C(=O)N[C@H](C(=O)N[C@@H](CCCNC(=N)N)C(=O)N[C@@H](C)C(=O)N[C@@H](C)C(=O)N[C@@H](CCC(N)=O)C(=O)N[C@@H](CCC(=O)O)C(=O)N[C@@H](CCC(N)=O)C(=O)N[C@@H](CCC(N)=O)C(=O)N[C@@H](CCC(=O)O)C(=O)N[C@@H](CCCCN)C(=O)N[C@@H](CC(N)=O)C(=O)N[C@@H](CCC(=O)O)C(=O)N[C@@H](C)C(=O)N[C@@H](C)C(=O)N[C@@H](CC(C)C)C(=O)N[C@@H](CCCNC(=N)N)C(N)=O)[C@@H](C)CC)[C@@H](C)CC) [peptide 14]	46
Pentanoyl-ANYLALIEALIRAAQEQQEKNEAALR-NH2 (SMILES CCCCC(=O)N[C@@H](C)C(=O)N[C@@H](CC(N)=O)C(=O)N[C@@H](Cc1ccc(O)cc1)C(=O)N[C@@H](CC(C)C)C(=O)N[C@@H](C)C(=O)N[C@@H](CC(C)C)C(=O)N[C@H](C(=O)N[C@@H](CCC(=O)O)C(=O)N[C@@H](C)C(=O)N[C@@H](CC(C)C)C(=O)N[C@H](C(=O)N[C@@H](CCCNC(=N)N)C(=O)N[C@@H](C)C(=O)N[C@@H](C)C(=O)N[C@@H](CCC(N)=O)C(=O)N[C@@H](CCC(=O)O)C(=O)N[C@@H](CCC(N)=O)C(=O)N[C@@H](CCC(N)=O)C(=O)N[C@@H](CCC(=O)O)C(=O)N[C@@H](CCCCN)C(=O)N[C@@H](CC(N)=O)C(=O)N[C@@H](CCC(=O)O)C(=O)N[C@@H](C)C(=O)N[C@@H](C)C(=O)N[C@@H](CC(C)C)C(=O)N[C@@H](CCCNC(=N)N)C(N)=O)[C@@H](C)CC)[C@@H](C)CC) [peptide 15]	18
Pentanoyl-ANYAALIEALIRKAQEQQEKNEAALR-NH2 (SMILES CCCCC(=O)N[C@@H](C)C(=O)N[C@@H](CC(N)=O)C(=O)N[C@@H](Cc1ccc(O)cc1)C(=O)N[C@@H](C)C(=O)N[C@@H](C)C(=O)N[C@@H](CC(C)C)C(=O)N[C@H](C(=O)N[C@@H](CCC(=O)O)C(=O)N[C@@H](C)C(=O)N[C@@H](CC(C)C)C(=O)N[C@H](C(=O)N[C@@H](CCCNC(=N)N)C(=O)N[C@@H](CCCCN)C(=O)N[C@@H](C)C(=O)N[C@@H](CCC(N)=O)C(=O)N[C@@H](CCC(=O)O)C(=O)N[C@@H](CCC(N)=O)C(=O)N[C@@H](CCC(N)=O)C(=O)N[C@@H](CCC(=O)O)C(=O)N[C@@H](CCCCN)C(=O)N[C@@H](CC(N)=O)C(=O)N[C@@H](CCC(=O)O)C(=O)N[C@@H](C)C(=O)N[C@@H](C)C(=O)N[C@@H](CC(C)C)C(=O)N[C@@H](CCCNC(=N)N)C(N)=O)[C@@H](C)CC)[C@@H](C)CC) [peptide 16]	49
Isovaleryl-ANYAALIEALIRAAQEQQEKNEAALR-NH2 (SMILES CC[C@H](C)[C@H](NC(=O)[C@H](CC(C)C)NC(=O)[C@H](C)NC(=O)[C@H](CCC(=O)O)NC(=O)[C@@H](NC(=O)[C@H](CC(C)C)NC(=O)[C@H](C)NC(=O)[C@H](C)NC(=O)[C@H](Cc1ccc(O)cc1)NC(=O)[C@H](CC(N)=O)NC(=O)[C@H](C)NC(=O)CC(C)C)[C@@H](C)CC)C(=O)N[C@@H](CCCNC(=N)N)C(=O)N[C@@H](C)C(=O)N[C@@H](C)C(=O)N[C@@H](CCC(N)=O)C(=O)N[C@@H](CCC(=O)O)C(=O)N[C@@H](CCC(N)=O)C(=O)N[C@@H](CCC(N)=O)C(=O)N[C@@H](CCC(=O)O)C(=O)N[C@@H](CCCCN)C(=O)N[C@@H](CC(N)=O)C(=O)N[C@@H](CCC(=O)O)C(=O)N[C@@H](C)C(=O)N[C@@H](C)C(=O)N[C@@H](CC(C)C)C(=O)N[C@@H](CCCNC(=N)N)C(N)=O) [peptide 17]	75
Suc-ENYLALIEELIRKAQEQQEKNEAALR-NH2 (SMILES CC[C@H](C)[C@H](NC(=O)[C@H](CC(C)C)NC(=O)[C@H](C)NC(=O)[C@H](CC(C)C)NC(=O)[C@H](Cc1ccc(O)cc1)NC(=O)[C@H](CC(N)=O)NC(=O)[C@H](CCC(=O)O)NC(=O)CCC(=O)O)C(=O)N[C@@H](CCC(=O)O)C(=O)N[C@@H](CCC(=O)O)C(=O)N[C@@H](CC(C)C)C(=O)N[C@H](C(=O)N[C@@H](CCCNC(=N)N)C(=O)N[C@@H](CCCCN)C(=O)N[C@@H](C)C(=O)N[C@@H](CCC(N)=O)C(=O)N[C@@H](CCC(=O)O)C(=O)N[C@@H](CCC(N)=O)C(=O)N[C@@H](CCC(N)=O)C(=O)N[C@@H](CCC(=O)O)C(=O)N[C@@H](CCCCN)C(=O)N[C@@H](CC(N)=O)C(=O)N[C@@H](CCC(=O)O)C(=O)N[C@@H](C)C(=O)N[C@@H](C)C(=O)N[C@@H](CC(C)C)C(=O)N[C@@H](CCCNC(=N)N)C(N)=O)[C@@H](C)CC) [peptide 19]	22
Suc-ENYLRLIEELIRKAQEQQEKNEAALR-NH2 (SMILES CC[C@H](C)[C@H](NC(=O)[C@H](CC(C)C)NC(=O)[C@H](CCC(=O)O)NC(=O)[C@H](CCC(=O)O)NC(=O)[C@@H](NC(=O)[C@H](CC(C)C)NC(=O)[C@H](CCCNC(=N)N)NC(=O)[C@H](CC(C)C)NC(=O)[C@H](Cc1ccc(O)cc1)NC(=O)[C@H](CC(N)=O)NC(=O)[C@H](CCC(=O)O)NC(=O)CCC(=O)O)[C@@H](C)CC)C(=O)N[C@@H](CCCNC(=N)N)C(=O)N[C@@H](CCCCN)C(=O)N[C@@H](C)C(=O)N[C@@H](CCC(N)=O)C(=O)N[C@@H](CCC(=O)O)C(=O)N[C@@H](CCC(N)=O)C(=O)N[C@@H](CCC(N)=O)C(=O)N[C@@H](CCC(=O)O)C(=O)N[C@@H](CCCCN)C(=O)N[C@@H](CC(N)=O)C(=O)N[C@@H](CCC(=O)O)C(=O)N[C@@H](C)C(=O)N[C@@H](C)C(=O)N[C@@H](CC(C)C)C(=O)N[C@@H](CCCNC(=N)N)C(N)=O) [peptide 20]	8
Ac-CYAACIEALIRAAQEQQEKNEAALR-NH2 (linker 1-5 via B1; reading uncertain) [peptide 21]	75
Ac-CYAACIEALIRAAQEQQEKNEAALR-NH2 (linker 1-5 via B21″; SMILES CC[C@H](C)[C@H](NC(=O)[C@H](CC(C)C)NC(=O)[C@H](C)NC(=O)[C@H](CCC(=O)O)NC(=O)[C@@H](NC(=O)[C@@H]1CSCc2ccc3ccc(cc3c2)CSC[C@H](NC(C)=O)C(=O)N[C@@H](Cc2ccc(O)cc2)C(=O)N[C@@H](C)C(=O)N[C@@H](C)C(=O)N1)[C@@H](C)CC)C(=O)N[C@@H](CCCNC(=N)N)C(=O)N[C@@H](C)C(=O)N[C@@H](C)C(=O)N[C@@H](CCC(N)=O)C(=O)N[C@@H](CCC(=O)O)C(=O)N[C@@H](CCC(N)=O)C(=O)N[C@@H](CCC(N)=O)C(=O)N[C@@H](CCC(=O)O)C(=O)N[C@@H](CCCCN)C(=O)N[C@@H](CC(N)=O)C(=O)N[C@@H](CCC(=O)O)C(=O)N[C@@H](C)C(=O)N[C@@H](C)C(=O)N[C@@H](CC(C)C)C(=O)N[C@@H](CCCNC(=N)N)C(N)=O) [peptide 22]	19
Suc-CYLACIEELIRKAQEQQEKNEAAL[tBuAla]-NH2 (linker 1-5 via B2; reading uncertain) [peptide 23]	45

Reference: patent US20140357577A1, “HIV Membrane Fusion Inhibitors” (priority 2011, published 2014)
